B1: COX4I1 (parent)
chain: FDKEWVAKQTKRMLDMKVNPIQGL

Variants of: B1
Test: protein stability index of a GFP-peptide fusion (GPS, HEK-293T) (PSI 1-6); higher = more stable
Settings: c terminus: a fixed tail appended
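Note: lentivirally expressed fusions sorted by FACS into six bins by GFP to DsRed ratio, PSI derived from sequencing read proportions per bin multiplied by bin number.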

Row | Variant | protein stability index
1 | FDKEWVAKQTKRMLDMTVNPIQGL [K17T] | 1.83
2 | FDKEWVAKQTKRMLDMVVNPIQGL [K17V] | 2.03
3 | FDKEWVAKQTKRMLDMWVNPIQGL [K17W] | 2.4
4 | FDKEWVAKQTKRMLDMYVNPIQGL [K17Y] | 2.14
5 | FDKEWVAKQTKRMLDMKANPIQGL [V18A] | 1.79
6 | FDKEWVAKQTKRMLDMKCNPIQGL [V18C] | 1.88
7 | FDKEWVAKQTKRMLDMKDNPIQGL [V18D] | 1.53
8 | FDKEWVAKQTKRMLDMKENPIQGL [V18E] | 1.95
9 | FDKEWVAKQTKRMLDMKFNPIQGL [V18F] | 1.42
10 | FDKEWVAKQTKRMLDMKGNPIQGL [V18G] | 2
11 | FDKEWVAKQTKRMLDMKHNPIQGL [V18H] | 1.94
12 | FDKEWVAKQTKRMLDMKINPIQGL [V18I] | 1.65
13 | FDKEWVAKQTKRMLDMKKNPIQGL [V18K] | 1.19
14 | FDKEWVAKQTKRMLDMKLNPIQGL [V18L] | 1.72
15 | FDKEWVAKQTKRMLDMKMNPIQGL [V18M] | 1.86
16 | FDKEWVAKQTKRMLDMKNNPIQGL [V18N] | 1.86
17 | FDKEWVAKQTKRMLDMKPNPIQGL [V18P] | 2.13
18 | FDKEWVAKQTKRMLDMKQNPIQGL [V18Q] | 2.22
19 | FDKEWVAKQTKRMLDMKRNPIQGL [V18R] | 2.19
20 | FDKEWVAKQTKRMLDMKSNPIQGL [V18S] | 1.81
21 | FDKEWVAKQTKRMLDMKTNPIQGL [V18T] | 2.24
22 | FDKEWVAKQTKRMLDMKWNPIQGL [V18W] | 1.99
23 | FDKEWVAKQTKRMLDMKYNPIQGL [V18Y] | 2.87
24 | FDKEWVAKQTKRMLDMKVAPIQGL [N19A] | 1.75

Row | Variant | protein stability index
25 | FDKEWVAKQTKRMLDMKVCPIQGL [N19C] | 2.23
26 | FDKEWVAKQTKRMLDMKVDPIQGL [N19D] | 1.79
27 | FDKEWVAKQTKRMLDMKVEPIQGL [N19E] | 1.9
28 | FDKEWVAKQTKRMLDMKVFPIQGL [N19F] | 1.77
29 | FDKEWVAKQTKRMLDMKVGPIQGL [N19G] | 1.94
30 | FDKEWVAKQTKRMLDMKVHPIQGL [N19H] | 1.7
31 | FDKEWVAKQTKRMLDMKVIPIQGL [N19I] | 1.76
32 | FDKEWVAKQTKRMLDMKVKPIQGL [N19K] | 1.92
33 | FDKEWVAKQTKRMLDMKVLPIQGL [N19L] | 1.26
34 | FDKEWVAKQTKRMLDMKVMPIQGL [N19M] | 1.97
35 | FDKEWVAKQTKRMLDMKVPPIQGL [N19P] | 2.32
36 | FDKEWVAKQTKRMLDMKVQPIQGL [N19Q] | 1.64
37 | FDKEWVAKQTKRMLDMKVRPIQGL [N19R] | 1.71
38 | FDKEWVAKQTKRMLDMKVSPIQGL [N19S] | 1.97
39 | FDKEWVAKQTKRMLDMKVTPIQGL [N19T] | 1.16
40 | FDKEWVAKQTKRMLDMKVVPIQGL [N19V] | 2.22
41 | FDKEWVAKQTKRMLDMKVWPIQGL [N19W] | 1.38
42 | FDKEWVAKQTKRMLDMKVYPIQGL [N19Y] | 2.55
43 | FDKEWVAKQTKRMLDMKVNAIQGL [P20A] | 1.61
44 | FDKEWVAKQTKRMLDMKVNCIQGL [P20C] | 1.73
45 | FDKEWVAKQTKRMLDMKVNDIQGL [P20D] | 1.63
46 | FDKEWVAKQTKRMLDMKVNEIQGL [P20E] | 1.59
47 | FDKEWVAKQTKRMLDMKVNFIQGL [P20F] | 1.71
48 | FDKEWVAKQTKRMLDMKVNGIQGL [P20G] | 2.17

Row | Variant | protein stability index
49 | FDKEWVAKQTKRMLDMKVNHIQGL [P20H] | 1.78
50 | FDKEWVAKQTKRMLDMKVNIIQGL [P20I] | 1.56
51 | FDKEWVAKQTKRMLDMKVNKIQGL [P20K] | 1.55
52 | FDKEWVAKQTKRMLDMKVNLIQGL [P20L] | 1.63
53 | FDKEWVAKQTKRMLDMKVNMIQGL [P20M] | 2.08
54 | FDKEWVAKQTKRMLDMKVNNIQGL [P20N] | 1.47
55 | FDKEWVAKQTKRMLDMKVNQIQGL [P20Q] | 1.54
56 | FDKEWVAKQTKRMLDMKVNRIQGL [P20R] | 1.68
57 | FDKEWVAKQTKRMLDMKVNSIQGL [P20S] | 1.55
58 | FDKEWVAKQTKRMLDMKVNTIQGL [P20T] | 2.38
59 | FDKEWVAKQTKRMLDMKVNVIQGL [P20V] | 1.73
60 | FDKEWVAKQTKRMLDMKVNWIQGL [P20W] | 2.4
61 | FDKEWVAKQTKRMLDMKVNYIQGL [P20Y] | 2.05
62 | FDKEWVAKQTKRMLDMKVNPAQGL [I21A] | 1.54
63 | FDKEWVAKQTKRMLDMKVNPCQGL [I21C] | 2.6
64 | FDKEWVAKQTKRMLDMKVNPDQGL [I21D] | 1.93
65 | FDKEWVAKQTKRMLDMKVNPEQGL [I21E] | 1.66
66 | FDKEWVAKQTKRMLDMKVNPFQGL [I21F] | 1.46
67 | FDKEWVAKQTKRMLDMKVNPGQGL [I21G] | 1.75
68 | FDKEWVAKQTKRMLDMKVNPHQGL [I21H] | 2.19
69 | FDKEWVAKQTKRMLDMKVNPKQGL [I21K] | 2.06
70 | FDKEWVAKQTKRMLDMKVNPLQGL [I21L] | 1.64
71 | FDKEWVAKQTKRMLDMKVNPMQGL [I21M] | 2.63
72 | FDKEWVAKQTKRMLDMKVNPNQGL [I21N] | 2.21

Row | Variant | protein stability index
73 | FDKEWVAKQTKRMLDMKVNPPQGL [I21P] | 1.63
74 | FDKEWVAKQTKRMLDMKVNPQQGL [I21Q] | 1.78
75 | FDKEWVAKQTKRMLDMKVNPRQGL [I21R] | 1.61
76 | FDKEWVAKQTKRMLDMKVNPSQGL [I21S] | 1.32
77 | FDKEWVAKQTKRMLDMKVNPTQGL [I21T] | 1.83
78 | FDKEWVAKQTKRMLDMKVNPVQGL [I21V] | 1.89
79 | FDKEWVAKQTKRMLDMKVNPWQGL [I21W] | 2.17
80 | FDKEWVAKQTKRMLDMKVNPYQGL [I21Y] | 1.75
81 | FDKEWVAKQTKRMLDMKVNPIAGL [Q22A] | 1.93
82 | FDKEWVAKQTKRMLDMKVNPICGL [Q22C] | 1.29
83 | FDKEWVAKQTKRMLDMKVNPIDGL [Q22D] | 2.31
84 | FDKEWVAKQTKRMLDMKVNPIEGL [Q22E] | 1.71
85 | FDKEWVAKQTKRMLDMKVNPIFGL [Q22F] | 1.73
86 | FDKEWVAKQTKRMLDMKVNPIGGL [Q22G] | 1.63
87 | FDKEWVAKQTKRMLDMKVNPIHGL [Q22H] | 1.93
88 | FDKEWVAKQTKRMLDMKVNPIIGL [Q22I] | 2.79
89 | FDKEWVAKQTKRMLDMKVNPIKGL [Q22K] | 1.92
90 | FDKEWVAKQTKRMLDMKVNPILGL [Q22L] | 2.08
91 | FDKEWVAKQTKRMLDMKVNPIMGL [Q22M] | 2.69
92 | FDKEWVAKQTKRMLDMKVNPINGL [Q22N] | 1.77
93 | FDKEWVAKQTKRMLDMKVNPIPGL [Q22P] | 1.73
94 | FDKEWVAKQTKRMLDMKVNPIRGL [Q22R] | 1.89

Source: the supplement of paper PMC10567573
